Data taken from the supplement of paper PMC10567573.

B1: ADAMTSL2 (parent)
chain: KKPPEESTCFERPCFKWYTSPWSE
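Note: lentivirally expressed fusions sorted by FACS into six bins by GFP to DsRed ratio, PSI derived from sequencing read proportions per bin multiplied by bin number.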

Variants of: B1
Assay: protein stability index of a GFP-peptide fusion (GPS, HEK-293T) (PSI 1-6); higher = more stable
Settings: c terminus: a fixed tail appended
Work on KKPPEESTCFERPCFKWYTSPGSE [W22G] yielded a protein stability index of 3.51.
KKPPEESTCFERPCFKWYTSPKSE [W22K] gave a protein stability index of 3.6.
KKPPEESTCFERPCFKWYTSPLSE [W22L] showed a protein stability index of 3.07.
With KKPPEESTCFERPCFKWYTSPFSE [W22F] the protein stability index was 2.98.
Work on KKPPEESTCFERPCFKWYTSPMSE [W22M] yielded a protein stability index of 2.6.
KKPPEESTCFERPCFKWYTSPISE [W22I] showed a protein stability index of 3.03.
KKPPEESTCFERPCFKWYTSPCSE [W22C] gave a protein stability index of 3.35.
KKPPEESTCFERPCFKWYTSPASE [W22A] showed a protein stability index of 4.34.
Variant KKPPEESTCFERPCFKWYTSPDSE [W22D] has a protein stability index of 3.79.
KKPPEESTCFERPCFKWYTSPESE [W22E] gave a protein stability index of 4.18.
KKPPEESTCFERPCFKWYTSPHSE [W22H] gave a protein stability index of 3.6.
KKPPEESTCFERPCFKWYTNPWSE [S20N] gave a protein stability index of 2.58.
With KKPPEESTCFERPCFKWYTMPWSE [S20M] the protein stability index was 2.08.
In the case of KKPPEESTCFERPCFKWYTYPWSE [S20Y], the protein stability index is reported as 2.37.
KKPPEESTCFERPCFKWYTRPWSE [S20R] showed a protein stability index of 2.86.
KKPPEESTCFERPCFKWYTQPWSE [S20Q] showed a protein stability index of 2.35.
Variant KKPPEESTCFERPCFKWYTTPWSE [S20T] has a protein stability index of 2.15.
Variant KKPPEESTCFERPCFKWYTPPWSE [S20P] has a protein stability index of 2.04.
In the case of KKPPEESTCFERPCFKWYTKPWSE [S20K], the protein stability index is reported as 2.61.
KKPPEESTCFERPCFKWYTVPWSE [S20V] showed a protein stability index of 1.93.
With KKPPEESTCFERPCFKWYTCPWSE [S20C] the protein stability index was 1.99.
KKPPEESTCFERPCFKWYTDPWSE [S20D] showed a protein stability index of 2.42.
For KKPPEESTCFERPCFKWYTHPWSE [S20H], the protein stability index was 2.25.
In the case of KKPPEESTCFERPCFKWYTFPWSE [S20F], the protein stability index is reported as 2.02.
With KKPPEESTCFERPCFKWYTLPWSE [S20L] the protein stability index was 1.95.
KKPPEESTCFERPCFKWYTWPWSE [S20W] gave a protein stability index of 4.33.
With KKPPEESTCFERPCFKWYTAPWSE [S20A] the protein stability index was 2.88.
Work on KKPPEESTCFERPCFKWYTGPWSE [S20G] yielded a protein stability index of 2.29.
Work on KKPPEESTCFERPCFKWYTEPWSE [S20E] yielded a protein stability index of 2.11.
Variant KKPPEESTCFERPCFKWYTIPWSE [S20I] has a protein stability index of 2.59.
For KKPPEESTCFERPCFKWPTSPWSE [Y18P], the protein stability index was 3.02.
KKPPEESTCFERPCFKWGTSPWSE [Y18G] showed a protein stability index of 2.99.
For KKPPEESTCFERPCFKWKTSPWSE [Y18K], the protein stability index was 3.04.
KKPPEESTCFERPCFKWATSPWSE [Y18A] showed a protein stability index of 2.87.
KKPPEESTCFERPCFKWRTSPWSE [Y18R] gave a protein stability index of 2.71.
Work on KKPPEESTCFERPCFKWQTSPWSE [Y18Q] yielded a protein stability index of 2.58.
Work on KKPPEESTCFERPCFKWSTSPWSE [Y18S] yielded a protein stability index of 3.18.
With KKPPEESTCFERPCFKWCTSPWSE [Y18C] the protein stability index was 2.33.
KKPPEESTCFERPCFKWDTSPWSE [Y18D] showed a protein stability index of 3.48.
Work on KKPPEESTCFERPCFKWVTSPWSE [Y18V] yielded a protein stability index of 2.22.
In the case of KKPPEESTCFERPCFKWITSPWSE [Y18I], the protein stability index is reported as 2.15.
Work on KKPPEESTCFERPCFKWFTSPWSE [Y18F] yielded a protein stability index of 1.86.
For KKPPEESTCFERPCFKWMTSPWSE [Y18M], the protein stability index was 2.38.
For KKPPEESTCFERPCFKWLTSPWSE [Y18L], the protein stability index was 2.45.
In the case of KKPPEESTCFERPCFKWNTSPWSE [Y18N], the protein stability index is reported as 2.81.
In the case of KKPPEESTCFERPCFKWWTSPWSE [Y18W], the protein stability index is reported as 2.57.
KKPPEESTCFERPCFKWTTSPWSE [Y18T] showed a protein stability index of 3.
In the case of KKPPEESTCFERPCFKWHTSPWSE [Y18H], the protein stability index is reported as 2.97.
Variant KKPPEESTCFERPCFKWETSPWSE [Y18E] has a protein stability index of 3.15.
KKPPEESTCFERPCWKWYTSPWSE [F15W] gave a protein stability index of 2.25.
Work on KKPPEESTCFERPCSKWYTSPWSE [F15S] yielded a protein stability index of 2.6.
For KKPPEESTCFERPCDKWYTSPWSE [F15D], the protein stability index was 3.26.
Work on KKPPEESTCFERPCAKWYTSPWSE [F15A] yielded a protein stability index of 2.75.
Variant KKPPEESTCFERPCMKWYTSPWSE [F15M] has a protein stability index of 2.06.
Variant KKPPEESTCFERPCLKWYTSPWSE [F15L] has a protein stability index of 1.61.
KKPPEESTCFERPCYKWYTSPWSE [F15Y] gave a protein stability index of 2.77.
Work on KKPPEESTCFERPCVKWYTSPWSE [F15V] yielded a protein stability index of 2.87.
With KKPPEESTCFERPCTKWYTSPWSE [F15T] the protein stability index was 2.89.
With KKPPEESTCFERPCHKWYTSPWSE [F15H] the protein stability index was 2.6.
KKPPEESTCFERPCRKWYTSPWSE [F15R] showed a protein stability index of 2.
Work on KKPPEESTCFERPCPKWYTSPWSE [F15P] yielded a protein stability index of 2.31.
KKPPEESTCFERPCEKWYTSPWSE [F15E] showed a protein stability index of 3.25.
Variant KKPPEESTCFERPCKKWYTSPWSE [F15K] has a protein stability index of 2.64.
Work on KKPPEESTCFERPCNKWYTSPWSE [F15N] yielded a protein stability index of 2.63.
For KKPPEESTCFERPCQKWYTSPWSE [F15Q], the protein stability index was 2.63.
For KKPPEESTCFERPCGKWYTSPWSE [F15G], the protein stability index was 2.25.
KKPPEESTCFERPCCKWYTSPWSE [F15C] gave a protein stability index of 2.93.
KKPPEESTCFERPCIKWYTSPWSE [F15I] gave a protein stability index of 2.79.
KKPPEESTCFETPCFKWYTSPWSE [R12T] showed a protein stability index of 2.09.
Variant KKPPEESTCFEYPCFKWYTSPWSE [R12Y] has a protein stability index of 2.84.
Variant KKPPEESTCFEVPCFKWYTSPWSE [R12V] has a protein stability index of 2.29.
KKPPEESTCFEWPCFKWYTSPWSE [R12W] gave a protein stability index of 2.24.
With KKPPEESTCFESPCFKWYTSPWSE [R12S] the protein stability index was 2.79.
KKPPEESTCFEPPCFKWYTSPWSE [R12P] showed a protein stability index of 2.77.
KKPPEESTCFEQPCFKWYTSPWSE [R12Q] gave a protein stability index of 2.3.
Variant KKPPEESTCFERPCFKWYTSVWSE [P21V] has a protein stability index of 2.33.
KKPPEESTCFERPCFKWYTSSWSE [P21S] gave a protein stability index of 1.87.
Work on KKPPEESTCFERPCFKWYTSDWSE [P21D] yielded a protein stability index of 3.04.
KKPPEESTCFERPCFKWYTSFWSE [P21F] gave a protein stability index of 1.78.
With KKPPEESTCFERPCFKWYTSWWSE [P21W] the protein stability index was 1.68.
In the case of KKPPEESTCFERPCFKWYTSEWSE [P21E], the protein stability index is reported as 2.72.
In the case of KKPPEESTCFERPCFKWYTSRWSE [P21R], the protein stability index is reported as 2.17.
Work on KKPPEESTCFERPCFKWYTSKWSE [P21K] yielded a protein stability index of 2.7.
Variant KKPPEESTCFERPCFKWYTSAWSE [P21A] has a protein stability index of 2.41.
Work on KKPPEESTCFERPCFKWYTSIWSE [P21I] yielded a protein stability index of 2.38.
In the case of KKPPEESTCFERPCFKWYTSCWSE [P21C], the protein stability index is reported as 2.39.
Work on KKPPEESTCFERPCFKWYTSHWSE [P21H] yielded a protein stability index of 2.46.
Work on KKPPEESTCFERPCFKWYTSYWSE [P21Y] yielded a protein stability index of 1.73.
With KKPPEESTCFERPCFKWYTSNWSE [P21N] the protein stability index was 2.16.
In the case of KKPPEESTCFERPCFKWYTSLWSE [P21L], the protein stability index is reported as 2.4.
With KKPPEESTCFERPCFKWYTSTWSE [P21T] the protein stability index was 2.75.
Variant KKPPEESTCFERPCFKWYTSQWSE [P21Q] has a protein stability index of 2.2.
KKPPEESTCFERPCFKWYTSMWSE [P21M] gave a protein stability index of 1.44.
For KKPPEESTCFERPCFKWYTSGWSE [P21G], the protein stability index was 2.16.
